By EC50 (read off the curve) is commonly meant the concentration at which the effect is half-maximal. Broadly, the Kd is the constant that tells how readily two partners part at equilibrium.

Test [1] addresses cynomolgus CD161 (cynomolgus). The experiment in a line: flow cytometry titration of antibody on Jurkat cynoCD161+ cells, fluorescent secondary antibody, MFI against concentration (log [M]).
Test [2] concerns the target cynomolgus CD161 (cynomolgus). Briefly: flow, Jurkat, Ab titration.
Test [3] deals with human CD161 (human) (UniProt Q12918). The experiment in a line: flow, Jurkat, Ab titration.
The target is the same in test [4]. The experiment in a line: flow cytometry titration of antibody on Jurkat hCD161+ cells, fluorescent secondary antibody, MFI against Ab concentration (log [M]). On the technique in general: In flow cytometry, cells or beads pass a laser one at a time.
Another test has as its target Human Clec5A (human) (UniProt Q9NY25). Briefly: flow, Jurkat, 100 nM Ab.
Another test has as its target Human OLR1 (human) (UniProt P78380). The experiment in a line: flow, Jurkat, 100 nM Ab.
In the next test the target is Human KLRF2 (human) (UniProt D3W0D1). The experiment in a line: flow, Jurkat, 100 nM Ab.
The target of the next test is Human KLRG1 (human) (UniProt Q96E93). Briefly: flow, Jurkat, 100 nM Ab.
The next test addresses Human Clec9A (human) (UniProt Q6UXN8). Briefly: flow, Jurkat, 100 nM Ab.
For the next test, the target named is Human Clec4E (human) (UniProt Q9ULY5). The experiment in a line: flow, Jurkat, 100 nM Ab.
A further test addresses Human CD94 (human) (UniProt Q13241). The experiment in a line: flow, Jurkat, 100 nM Ab.
Another test has as its target Human Clec10A (human) (UniProt Q8IUN9). The experiment in a line: flow, Jurkat, 100 nM Ab.
The next test deals with Human Clec12B (human) (UniProt Q2HXU8). Briefly: flow, Jurkat, 100 nM Ab.
The target in the next test is Human Clec7A (human) (UniProt Q9BXN2). Briefly: flow, Jurkat, 100 nM Ab.
A further test addresses Human CD209 (human) (UniProt Q9NNX6). The experiment in a line: flow, Jurkat, 100 nM Ab.
Test [5] concerns the target cynomolgus CD161 (cynomolgus). The experiment in a line: flow, Jurkat, 100 nM Ab.
The next test has as its target Human KLRF1 (human) (UniProt Q9NZS2). The experiment in a line: flow, Jurkat, 100 nM Ab.
The target of test [6] is human CD161 (human) (UniProt Q12918). Briefly: flow, Jurkat, 100 nM Ab.

cynomolgus CD161 (cynomolgus), sequence (chain, as listed by the source limits assumed): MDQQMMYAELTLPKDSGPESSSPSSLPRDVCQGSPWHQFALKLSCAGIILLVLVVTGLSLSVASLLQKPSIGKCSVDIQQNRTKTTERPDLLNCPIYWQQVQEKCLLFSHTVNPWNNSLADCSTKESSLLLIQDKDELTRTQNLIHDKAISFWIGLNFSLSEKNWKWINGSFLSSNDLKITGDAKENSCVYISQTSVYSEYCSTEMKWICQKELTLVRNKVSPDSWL
Human Clec12B (human), sequence (Q2HXU8 whole entry): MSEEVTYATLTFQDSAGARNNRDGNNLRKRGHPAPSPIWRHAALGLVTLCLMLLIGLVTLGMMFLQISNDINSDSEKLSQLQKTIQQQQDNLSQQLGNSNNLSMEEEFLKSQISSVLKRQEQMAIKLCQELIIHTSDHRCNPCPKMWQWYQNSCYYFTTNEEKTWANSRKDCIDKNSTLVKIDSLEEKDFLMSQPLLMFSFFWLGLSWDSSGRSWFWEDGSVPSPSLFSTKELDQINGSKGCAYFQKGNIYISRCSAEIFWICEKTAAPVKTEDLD
Human Clec10A (human), sequence (Q8IUN9 whole entry): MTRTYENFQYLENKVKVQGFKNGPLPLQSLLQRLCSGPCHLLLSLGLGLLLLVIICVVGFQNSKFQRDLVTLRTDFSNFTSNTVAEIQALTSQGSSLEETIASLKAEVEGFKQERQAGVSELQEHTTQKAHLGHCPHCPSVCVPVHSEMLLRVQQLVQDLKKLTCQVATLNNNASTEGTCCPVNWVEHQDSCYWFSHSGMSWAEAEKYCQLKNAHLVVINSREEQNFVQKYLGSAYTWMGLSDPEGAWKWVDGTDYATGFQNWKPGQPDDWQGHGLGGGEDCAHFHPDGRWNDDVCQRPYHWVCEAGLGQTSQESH
Human KLRG1 (human), sequence (Q96E93 whole entry): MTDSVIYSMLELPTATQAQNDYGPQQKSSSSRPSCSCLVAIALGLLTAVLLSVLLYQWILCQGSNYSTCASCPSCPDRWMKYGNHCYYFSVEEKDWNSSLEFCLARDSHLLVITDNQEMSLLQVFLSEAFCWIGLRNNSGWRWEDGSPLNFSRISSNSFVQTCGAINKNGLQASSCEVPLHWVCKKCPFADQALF
Human KLRF2 (human), sequence (D3W0D1 whole entry): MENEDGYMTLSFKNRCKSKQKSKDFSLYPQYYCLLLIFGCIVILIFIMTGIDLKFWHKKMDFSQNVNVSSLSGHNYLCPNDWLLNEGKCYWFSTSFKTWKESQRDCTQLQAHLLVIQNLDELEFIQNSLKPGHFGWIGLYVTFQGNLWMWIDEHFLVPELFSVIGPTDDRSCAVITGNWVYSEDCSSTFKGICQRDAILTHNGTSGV
Human KLRF1 (human), sequence (Q9NZS2 whole entry): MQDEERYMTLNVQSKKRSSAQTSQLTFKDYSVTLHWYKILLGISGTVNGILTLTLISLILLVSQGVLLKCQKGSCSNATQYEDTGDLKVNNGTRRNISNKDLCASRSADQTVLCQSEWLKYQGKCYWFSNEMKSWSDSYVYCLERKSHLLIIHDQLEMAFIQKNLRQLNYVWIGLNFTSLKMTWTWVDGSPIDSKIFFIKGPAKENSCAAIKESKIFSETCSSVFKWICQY
Human Clec7A (human), sequence (Q9BXN2 whole entry): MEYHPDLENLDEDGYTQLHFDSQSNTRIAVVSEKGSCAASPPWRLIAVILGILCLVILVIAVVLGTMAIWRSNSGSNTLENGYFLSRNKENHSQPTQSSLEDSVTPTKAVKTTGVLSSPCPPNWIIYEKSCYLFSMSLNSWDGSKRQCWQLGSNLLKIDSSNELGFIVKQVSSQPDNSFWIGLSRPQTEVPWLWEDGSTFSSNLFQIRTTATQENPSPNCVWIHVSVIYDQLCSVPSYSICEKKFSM
Human Clec9A (human), sequence (Q6UXN8 whole entry): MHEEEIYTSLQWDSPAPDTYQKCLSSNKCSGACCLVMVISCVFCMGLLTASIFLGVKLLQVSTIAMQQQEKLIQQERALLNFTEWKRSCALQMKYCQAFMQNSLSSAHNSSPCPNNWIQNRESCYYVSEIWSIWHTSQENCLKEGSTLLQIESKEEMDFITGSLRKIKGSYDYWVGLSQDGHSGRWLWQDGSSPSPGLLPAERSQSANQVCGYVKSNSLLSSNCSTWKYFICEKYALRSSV
Human CD209 (human), sequence (Q9NNX6 whole entry): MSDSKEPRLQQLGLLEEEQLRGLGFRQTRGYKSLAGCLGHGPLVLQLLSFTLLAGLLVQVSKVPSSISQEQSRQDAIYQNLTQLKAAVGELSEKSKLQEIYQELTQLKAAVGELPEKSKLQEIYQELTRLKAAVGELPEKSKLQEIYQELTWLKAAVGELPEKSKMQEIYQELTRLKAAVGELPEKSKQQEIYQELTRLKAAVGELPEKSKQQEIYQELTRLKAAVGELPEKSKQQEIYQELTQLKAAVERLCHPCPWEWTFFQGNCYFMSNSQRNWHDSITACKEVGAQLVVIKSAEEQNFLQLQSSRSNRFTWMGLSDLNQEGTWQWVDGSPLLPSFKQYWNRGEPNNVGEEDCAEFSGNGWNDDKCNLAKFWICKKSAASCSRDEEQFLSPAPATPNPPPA
Human Clec5A (human), sequence (Q9NY25 whole entry): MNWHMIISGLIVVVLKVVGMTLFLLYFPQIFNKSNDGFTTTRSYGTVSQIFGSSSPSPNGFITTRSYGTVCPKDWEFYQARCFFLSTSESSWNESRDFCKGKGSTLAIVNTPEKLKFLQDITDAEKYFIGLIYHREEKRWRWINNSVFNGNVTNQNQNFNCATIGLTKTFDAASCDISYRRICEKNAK
Human Clec4E (human), sequence (Q9ULY5 whole entry): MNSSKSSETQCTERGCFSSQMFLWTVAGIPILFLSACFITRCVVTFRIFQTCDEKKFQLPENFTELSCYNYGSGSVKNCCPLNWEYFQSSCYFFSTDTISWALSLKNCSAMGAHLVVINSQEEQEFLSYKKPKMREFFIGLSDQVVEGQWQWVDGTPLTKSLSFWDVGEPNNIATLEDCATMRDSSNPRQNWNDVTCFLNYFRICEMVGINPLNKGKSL
Human CD94 (human), sequence (Q13241 whole entry): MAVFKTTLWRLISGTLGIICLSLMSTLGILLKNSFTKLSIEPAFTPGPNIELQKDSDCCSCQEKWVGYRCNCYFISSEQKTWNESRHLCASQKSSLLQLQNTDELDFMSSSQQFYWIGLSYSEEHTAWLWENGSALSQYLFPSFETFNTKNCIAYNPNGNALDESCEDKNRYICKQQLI

For the substance mouse anti-human CD161 antibody HP-3G10, the EC50 (read off the curve) in [1] amounted to 1 nM; in the test with human CD161 (human) [4], 2 nM. The figures for the Kd (in test [2]; in the test with human CD161 (human) [3]) were 1.18 nM and 1.67 nM, respectively. Besides, the MFI normalized to WT with Human Clec5A (human) was determined as 1.08; with Human OLR1 (human), 1.01; with Human KLRF2 (human) it was 1.07; in the test with Human KLRG1 (human) it was 1.07; with Human Clec9A (human), 1.09; in the test with Human Clec4E (human), 1. Besides, the MFI normalized to WT was determined as 1 with Human CD94 (human); 1 with Human Clec10A (human); 1.1 in the test with Human Clec12B (human); 1.16 in the test with Human Clec7A (human); 1.01 with Human CD209 (human); 46.7 in test [5]. Besides, the MFI normalized to WT with Human KLRF1 (human) is 0.94; in the test with human CD161 (human) [6], 75.2.

Source of the values: US20210122826A1.
